Sequences and labels used below:
B1: AR AD fragment transactivation unit 5 (Tau-5*; residues 330 to 448) [human (from the printed UniProt entry)] / itself (parent)
chain: AAGSSGTLELPSTLSLYKSGALDEAAAYQSRDYYNFPLALAGPPPPPPPPHPHARIKLENPLDYGSAWAAAAAQCRYGDLASLHGAGAAGPGSGSPSAAASSSWHTLFTAEEGQLYGPC

The variants in the test derive from B1. As to the kind of experiment: 2D 1H-15N NMR, concentration-dependent CSPs (self-association). Conditions: with itself; protein concentration from 25 to 400 μM; read off a plot.
On to chain 1 G78A, for which the response was found to be 0.013 p.p.m.
chain 1 C75Y: the response is 0.019 p.p.m.
For the variant chain 1 A69P, the response came to 0.005 p.p.m.
Then chain 1 G65A S66A G78A, with 0.02 p.p.m; and chain 1 L107P, with 0.0065 p.p.m; and chain 1 W104A H105A F108A, with 0.0068 p.p.m.

The record behind these values is paper PMC12947862, “Oligomerization enables the selective targeting of an intrinsically disordered region by a small molecule” (Science Advances, 2026).
